The results in this text go back to patent US11739161B2, “Methods for treating and diagnosing prostate cancer” (Tufts Medical Center, Inc., priority 2017, dated 2023).

One assay concerns DU145 cells. Briefly: Cell cycle analysis by flow cytometry. It counts as cell-based, human. Conditions: exogenous RNASE4 1 μg/ml. How it is done: FIGS. 10A-E. RNASE4 induces prostate cancer cell proliferation and phosphorylation of AKT and S6. (A and B) Exogenous RNASE4 (1 μg/ml) stimulates cell proliferation (A) and cell cycle progression (B) of DU145 cells cultured in the presence of 2% FBS. Cell numbers were determined by MTT assay. […] (C) Time course of AKT and S6 phosphorylation of serum-starved DU145 cells by RNASE4 (1 μg/ml). Left panels, immunoblots; right panels, quantification of p-AKT and p-S6 normalized to total AKT and S6 by Image J analysis. […] Cells were pre-incubated with the inhibitors at the indicated concentrations for 1 hour prior to be stimulated by 1 μg/ml of RNASE4 for 5 minutes. Top panels, immunoblots; bottom panels, Image J quantification of p-AKT and p-S6 normalized to total AKT and S6. (E) Effect of AKT inhibitor MK-2206, PI3K inhibitors Wortmannin and LY294002, and mTOR inhibitor Rapamycin on RNASE4-induced cell proliferation. DU145 cells were serum-starved overnight, incubated with the inhibitors for 1 hour, and then treated with RNASE4 (1 μg/ml) for three days. Cell numbers were determined by MTT assay. Data shown are from a representative experiments in triplicates of 3 independent repeats. […]
FIGS. 17A-C. […] Cell numbers were determined by a Coulter counter. […] Cell cycle status was determined by flow cytometry. […] Bottom panels, tube length and number of loops counted from 5 randomly selected areas. […]
In general terms: In flow cytometry, cells or beads pass a laser one at a time.

The next assay concerns LNCaP cells. As to the kind of experiment: RNASE4 knockdown, cell proliferation (Coulter counter). It is filed as cell-based, human. Conditions: exogenous RNASE4 1 μg/ml. The source says:
FIGS. 15A-D. RNASE4 knockdown inhibits LNCaP cell proliferation in vitro and colony formation in soft agar. (A) Immunoblot analysis of RNASE4 in LNCaP cells stably transfected with shControl, shRNASE4-1, and shRNASE4-2. (B) qRT-PCR analysis of RNASE4 mRNA normalized to GAPDH in LNCaP cells stably transfected with shControl, shRNASE4-1, and shRNASE4-2. (C) Effect of RNASE4 knockdown on LNCaP cell proliferation. Cell numbers were counted by Coulter counter. Exogenous RNASE4, when presented, was at the concentration of 1 μg/ml. Data shown are from a representative experiment in triplicates of 3 independent experiments. (D) Effects of RNASE4 knockdown on colonies formation and growth of LNCaP cells in soft agar. The same numbers of control and RNASE4 knockdown cells were seeded in soft agar, and grown in the absence or presence of 1 μg/ml of RNASE4 for 14 days. Colonies were counted and size measured on a Nikon Eclipse ti microscope. Top panels, representative images of colonies; scale bars=100 μm. Bottom panels, quantification of LMCaP cell colonies and sizes in soft agar. Data shown are means±SEM of five randomly selected fields per dish from a representative experiment. **P≤0.01 and ***P≤0.001, by two-tailed Student's t test.
Lentiviral mediated shRNA system (pGIPZ, Open Biosystems) was used to generate control and RNASE4 knockdown cell lines. […]

B1: RNASE4: recombinant human RNASE4 protein from pET11 expression in E. coli, purified by reversed-phase HPLC; added exogenously (protein, UniProt P34096 29-147, looked up)
Ribonuclease 4: QDGMYQRFLRQHVHPEETGGSDRYCNLMMQRRKMTLYHCKRFNTFIHEDIWNIRSICSTTNIQCKNGKMNCHEGVVKVTDCRDTGSSRAPNCRYRAIASTRRVVIACEGNPQVPVHFDG
B1: in the assay on DU145 cells, the G0/G1 population result is “decreased” and the G2/S/M phase population entry is on record as “increased”. For the same molecule, the “rescue of the effect of RNASE4 knockdown on cell proliferation” value in the assay on LNCaP cells was “able to rescue”.
